Measured values published in patent publication US20110118131A1 (published 2011).

B1: XPA23 heavy chain D106L (Fab, V domains shown)
VH: EVQLLESGGGLVQPGGSLRLSCAASGFTFSKYFMFWVRQAPGKGLEWVSVISPSGGMTRYADSVKGRFTISRDNSKNTLYLQMNSLRAEDTAVYYCARVGYGGNSLYWGQGTLVTVSS
VL: DIQMTQSPSSVSASVGDRLTIICRASQDINRWLAWYQQTPGNAPKLLIHSATSLQSGVPSRFSGSGSGTDFTLTINSLQPEDFATYYCQQADSFPLTFGGGTKVEIK
notes: Fab, periplasmic extract; also called C5A D106L
B2: XPA23 heavy chain I51P (Fab, V domains shown)
VH: EVQLLESGGGLVQPGGSLRLSCAASGFTFSKYFMFWVRQAPGKGLEWVSVPSPSGGMTRYADSVKGRFTISRDNSKNTLYLQMNSLRAEDTAVYYCARVGYGGNSDYWGQGTLVTVSS
VL: DIQMTQSPSSVSASVGDRLTIICRASQDINRWLAWYQQTPGNAPKLLIHSATSLQSGVPSRFSGSGSGTDFTLTINSLQPEDFATYYCQQADSFPLTFGGGTKVEIK
notes: Fab, periplasmic extract; also called C5A I51P
B3: XPA23 heavy chain G102A (Fab, V domains shown)
VH: EVQLLESGGGLVQPGGSLRLSCAASGFTFSKYFMFWVRQAPGKGLEWVSVISPSGGMTRYADSVKGRFTISRDNSKNTLYLQMNSLRAEDTAVYYCARVGYAGNSDYWGQGTLVTVSS
VL: DIQMTQSPSSVSASVGDRLTIICRASQDINRWLAWYQQTPGNAPKLLIHSATSLQSGVPSRFSGSGSGTDFTLTINSLQPEDFATYYCQQADSFPLTFGGGTKVEIK
notes: Fab, periplasmic extract; also called C5A G102A
B4: XPA23 heavy chain G100L (Fab, V domains shown)
VH: EVQLLESGGGLVQPGGSLRLSCAASGFTFSKYFMFWVRQAPGKGLEWVSVISPSGGMTRYADSVKGRFTISRDNSKNTLYLQMNSLRAEDTAVYYCARVLYGGNSDYWGQGTLVTVSS
VL: DIQMTQSPSSVSASVGDRLTIICRASQDINRWLAWYQQTPGNAPKLLIHSATSLQSGVPSRFSGSGSGTDFTLTINSLQPEDFATYYCQQADSFPLTFGGGTKVEIK
notes: Fab, periplasmic extract; also called C5A G100L
B5: XPA23 heavy chain K31T (Fab, V domains shown)
VH: EVQLLESGGGLVQPGGSLRLSCAASGFTFSTYFMFWVRQAPGKGLEWVSVISPSGGMTRYADSVKGRFTISRDNSKNTLYLQMNSLRAEDTAVYYCARVGYGGNSDYWGQGTLVTVSS
VL: DIQMTQSPSSVSASVGDRLTIICRASQDINRWLAWYQQTPGNAPKLLIHSATSLQSGVPSRFSGSGSGTDFTLTINSLQPEDFATYYCQQADSFPLTFGGGTKVEIK
notes: Fab, periplasmic extract; also called C5A K31T
B6: XPA23 heavy chain D106T (Fab, V domains shown)
VH: EVQLLESGGGLVQPGGSLRLSCAASGFTFSKYFMFWVRQAPGKGLEWVSVISPSGGMTRYADSVKGRFTISRDNSKNTLYLQMNSLRAEDTAVYYCARVGYGGNSTYWGQGTLVTVSS
VL: DIQMTQSPSSVSASVGDRLTIICRASQDINRWLAWYQQTPGNAPKLLIHSATSLQSGVPSRFSGSGSGTDFTLTINSLQPEDFATYYCQQADSFPLTFGGGTKVEIK
notes: Fab, periplasmic extract; also called C5A D106T
B7: XPA23 heavy chain S30P (Fab, V domains shown)
VH: EVQLLESGGGLVQPGGSLRLSCAASGFTFPKYFMFWVRQAPGKGLEWVSVISPSGGMTRYADSVKGRFTISRDNSKNTLYLQMNSLRAEDTAVYYCARVGYGGNSDYWGQGTLVTVSS
VL: DIQMTQSPSSVSASVGDRLTIICRASQDINRWLAWYQQTPGNAPKLLIHSATSLQSGVPSRFSGSGSGTDFTLTINSLQPEDFATYYCQQADSFPLTFGGGTKVEIK
notes: Fab, periplasmic extract; also called C5A S30P
B8: XPA23 heavy chain D106P (Fab, V domains shown)
VH: EVQLLESGGGLVQPGGSLRLSCAASGFTFSKYFMFWVRQAPGKGLEWVSVISPSGGMTRYADSVKGRFTISRDNSKNTLYLQMNSLRAEDTAVYYCARVGYGGNSPYWGQGTLVTVSS
VL: DIQMTQSPSSVSASVGDRLTIICRASQDINRWLAWYQQTPGNAPKLLIHSATSLQSGVPSRFSGSGSGTDFTLTINSLQPEDFATYYCQQADSFPLTFGGGTKVEIK
notes: Fab, periplasmic extract; also called C5A D106P
B9: XPA23 heavy chain S52I (Fab, V domains shown)
VH: EVQLLESGGGLVQPGGSLRLSCAASGFTFSKYFMFWVRQAPGKGLEWVSVIIPSGGMTRYADSVKGRFTISRDNSKNTLYLQMNSLRAEDTAVYYCARVGYGGNSDYWGQGTLVTVSS
VL: DIQMTQSPSSVSASVGDRLTIICRASQDINRWLAWYQQTPGNAPKLLIHSATSLQSGVPSRFSGSGSGTDFTLTINSLQPEDFATYYCQQADSFPLTFGGGTKVEIK
notes: Fab, periplasmic extract; also called C5A S52I
B10: XPA23 heavy chain S52L (Fab, V domains shown)
VH: EVQLLESGGGLVQPGGSLRLSCAASGFTFSKYFMFWVRQAPGKGLEWVSVILPSGGMTRYADSVKGRFTISRDNSKNTLYLQMNSLRAEDTAVYYCARVGYGGNSDYWGQGTLVTVSS
VL: DIQMTQSPSSVSASVGDRLTIICRASQDINRWLAWYQQTPGNAPKLLIHSATSLQSGVPSRFSGSGSGTDFTLTINSLQPEDFATYYCQQADSFPLTFGGGTKVEIK
notes: Fab, periplasmic extract; also called C5A S52L
B11: XPA23 heavy chain R59A (Fab, V domains shown)
VH: EVQLLESGGGLVQPGGSLRLSCAASGFTFSKYFMFWVRQAPGKGLEWVSVISPSGGMTAYADSVKGRFTISRDNSKNTLYLQMNSLRAEDTAVYYCARVGYGGNSDYWGQGTLVTVSS
VL: DIQMTQSPSSVSASVGDRLTIICRASQDINRWLAWYQQTPGNAPKLLIHSATSLQSGVPSRFSGSGSGTDFTLTINSLQPEDFATYYCQQADSFPLTFGGGTKVEIK
notes: Fab, periplasmic extract; also called C5A R59A
B12: XPA23 heavy chain G102L (Fab, V domains shown)
VH: EVQLLESGGGLVQPGGSLRLSCAASGFTFSKYFMFWVRQAPGKGLEWVSVISPSGGMTRYADSVKGRFTISRDNSKNTLYLQMNSLRAEDTAVYYCARVGYLGNSDYWGQGTLVTVSS
VL: DIQMTQSPSSVSASVGDRLTIICRASQDINRWLAWYQQTPGNAPKLLIHSATSLQSGVPSRFSGSGSGTDFTLTINSLQPEDFATYYCQQADSFPLTFGGGTKVEIK
notes: Fab, periplasmic extract; also called C5A G102L
B13: XPA23 heavy chain R59I (Fab, V domains shown)
VH: EVQLLESGGGLVQPGGSLRLSCAASGFTFSKYFMFWVRQAPGKGLEWVSVISPSGGMTIYADSVKGRFTISRDNSKNTLYLQMNSLRAEDTAVYYCARVGYGGNSDYWGQGTLVTVSS
VL: DIQMTQSPSSVSASVGDRLTIICRASQDINRWLAWYQQTPGNAPKLLIHSATSLQSGVPSRFSGSGSGTDFTLTINSLQPEDFATYYCQQADSFPLTFGGGTKVEIK
notes: Fab, periplasmic extract; also called C5A R59I
B14: XPA23 heavy chain K31P (Fab, V domains shown)
VH: EVQLLESGGGLVQPGGSLRLSCAASGFTFSPYFMFWVRQAPGKGLEWVSVISPSGGMTRYADSVKGRFTISRDNSKNTLYLQMNSLRAEDTAVYYCARVGYGGNSDYWGQGTLVTVSS
VL: DIQMTQSPSSVSASVGDRLTIICRASQDINRWLAWYQQTPGNAPKLLIHSATSLQSGVPSRFSGSGSGTDFTLTINSLQPEDFATYYCQQADSFPLTFGGGTKVEIK
notes: Fab, periplasmic extract; also called C5A K31P
B15: XPA23 heavy chain G100P (Fab, V domains shown)
VH: EVQLLESGGGLVQPGGSLRLSCAASGFTFSKYFMFWVRQAPGKGLEWVSVISPSGGMTRYADSVKGRFTISRDNSKNTLYLQMNSLRAEDTAVYYCARVPYGGNSDYWGQGTLVTVSS
VL: DIQMTQSPSSVSASVGDRLTIICRASQDINRWLAWYQQTPGNAPKLLIHSATSLQSGVPSRFSGSGSGTDFTLTINSLQPEDFATYYCQQADSFPLTFGGGTKVEIK
notes: Fab, periplasmic extract; also called C5A G100P
B16: XPA23 heavy chain G102V (Fab, V domains shown)
VH: EVQLLESGGGLVQPGGSLRLSCAASGFTFSKYFMFWVRQAPGKGLEWVSVISPSGGMTRYADSVKGRFTISRDNSKNTLYLQMNSLRAEDTAVYYCARVGYVGNSDYWGQGTLVTVSS
VL: DIQMTQSPSSVSASVGDRLTIICRASQDINRWLAWYQQTPGNAPKLLIHSATSLQSGVPSRFSGSGSGTDFTLTINSLQPEDFATYYCQQADSFPLTFGGGTKVEIK
notes: Fab, periplasmic extract; also called C5A G102V
B17: XPA23 heavy chain R59V (Fab, V domains shown)
VH: EVQLLESGGGLVQPGGSLRLSCAASGFTFSKYFMFWVRQAPGKGLEWVSVISPSGGMTVYADSVKGRFTISRDNSKNTLYLQMNSLRAEDTAVYYCARVGYGGNSDYWGQGTLVTVSS
VL: DIQMTQSPSSVSASVGDRLTIICRASQDINRWLAWYQQTPGNAPKLLIHSATSLQSGVPSRFSGSGSGTDFTLTINSLQPEDFATYYCQQADSFPLTFGGGTKVEIK
notes: Fab, periplasmic extract; also called C5A R59V
B18: XPA23 heavy chain M57P (Fab, V domains shown)
VH: EVQLLESGGGLVQPGGSLRLSCAASGFTFSKYFMFWVRQAPGKGLEWVSVISPSGGPTRYADSVKGRFTISRDNSKNTLYLQMNSLRAEDTAVYYCARVGYGGNSDYWGQGTLVTVSS
VL: DIQMTQSPSSVSASVGDRLTIICRASQDINRWLAWYQQTPGNAPKLLIHSATSLQSGVPSRFSGSGSGTDFTLTINSLQPEDFATYYCQQADSFPLTFGGGTKVEIK
notes: Fab, periplasmic extract; also called C5A M57P
B19: XPA23 heavy chain S30V (Fab, V domains shown)
VH: EVQLLESGGGLVQPGGSLRLSCAASGFTFVKYFMFWVRQAPGKGLEWVSVISPSGGMTRYADSVKGRFTISRDNSKNTLYLQMNSLRAEDTAVYYCARVGYGGNSDYWGQGTLVTVSS
VL: DIQMTQSPSSVSASVGDRLTIICRASQDINRWLAWYQQTPGNAPKLLIHSATSLQSGVPSRFSGSGSGTDFTLTINSLQPEDFATYYCQQADSFPLTFGGGTKVEIK
notes: Fab, periplasmic extract; also called C5A S30V
B20: XPA23 heavy chain G102P (Fab, V domains shown)
VH: EVQLLESGGGLVQPGGSLRLSCAASGFTFSKYFMFWVRQAPGKGLEWVSVISPSGGMTRYADSVKGRFTISRDNSKNTLYLQMNSLRAEDTAVYYCARVGYPGNSDYWGQGTLVTVSS
VL: DIQMTQSPSSVSASVGDRLTIICRASQDINRWLAWYQQTPGNAPKLLIHSATSLQSGVPSRFSGSGSGTDFTLTINSLQPEDFATYYCQQADSFPLTFGGGTKVEIK
notes: Fab, periplasmic extract; also called C5A G102P
B21: XPA23 heavy chain D106V (Fab, V domains shown)
VH: EVQLLESGGGLVQPGGSLRLSCAASGFTFSKYFMFWVRQAPGKGLEWVSVISPSGGMTRYADSVKGRFTISRDNSKNTLYLQMNSLRAEDTAVYYCARVGYGGNSVYWGQGTLVTVSS
VL: DIQMTQSPSSVSASVGDRLTIICRASQDINRWLAWYQQTPGNAPKLLIHSATSLQSGVPSRFSGSGSGTDFTLTINSLQPEDFATYYCQQADSFPLTFGGGTKVEIK
notes: Fab, periplasmic extract; also called C5A D106V

Target: T1, IL-1β (UniProt P01584 117-269)
T1 construct: Antigen of XPA23
Experiment: Biacore, Fab periplasmic extract; -1 = no binding by the table's footnote

Binding result, no binding:
B1
B2
B3
B4
B5
B6
B7
B8
B9
B10
B11
B12
B13
B14
B15
B16
B17
B18
B19
B20
B21
